# Assay results published in patent US20250346646A1, “COMPOUNDS USEFUL TO TREAT METABOLIC DISORDERS” (President and Fellows of Harvard College, priority 2016, published 2025).
# B1: CA33: low-affinity anti-aP2 monoclonal antibody, rabbit-mouse hybrid, produced and purified by UCB; VL Seq. ID 28, VH Seq. ID 41 (antibody, V domains shown)
# VH: QSVEESGGRLVTPGTPLTLTCTVSGFSLSTYYMSWVRQAPGKGLEWIGIIYPSGSTYCASWAKGRFTISKASTTVDLKITSPTTEDTATYFCARPDNDGTSGYLSGFGLWGQGTLVTVSS
# VL: DVVMTQTPASVSEPVGGTVTIKCQASEDISRYLVWYQQKPGQPPKRLIYKASTLASGVPSRFKGSGSGTDFTLTISDLECDDAATYYCQCTYGTYAGSFFYSFGGGTEVVVE
# modifications: Rabbit Ab 909 VH region; Rabbit Ab 909 VL-region
# Legend:
# [1] = target: human glucagon receptor (Homo sapiens, UniProt P47871); test: cAMP-response element luciferase reporter in CHO-K1 cells expressing human GCGR-GFP; format: cell-based; details: 1 ug/ml aP2, 25 nM glucagon, 20 μg/ml antibody; 4 hours post stimulation
# Experimental: Bar graphs represent mean±standard deviation (s.d.), n=4-5 per group. *P<0.05, **P<0.01, ***P≤0.001, ****P≤0.0001, ns P>0.05. Multiple group comparisons were done using one-way ANOVA statistics with Tukey post-test correction. Graphs show data as mean±standard error of mean (s.e.m.), analyzed using two-way ANOVA.
# During cloning hexahistadine and WELQ protease site was added for protein purification. Murine aP2 gene was cloned into pet21+ vector after the hexahistadine tag and TEV protease site for ease of purification.
# Plasmids were transfected using Lipofectamine (Invitrogen) according to manufacturer's instructions. Transiently transfected cells were grown in appropriate selection antibiotics where applicable for stable cell line generation. Following three passages under selection media, single cell colonies were picked and expanded for experimentation after validation.
# [2] = target: T1, Mouse aP2 (Mus musculus, UniProt P04117); test: Biacore antibody cross-blocking vs H3; format: binding
# T1 construct: 10 His-tag (N, cleaved yes); TEV protease site (N, cleaved yes); made in house; host or cells: E. coli BL21DE3
# T1 sequence (P04117 1-132): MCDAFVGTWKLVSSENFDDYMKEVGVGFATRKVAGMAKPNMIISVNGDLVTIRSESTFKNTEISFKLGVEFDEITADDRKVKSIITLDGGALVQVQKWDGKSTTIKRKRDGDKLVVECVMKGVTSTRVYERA
# Experimental: FIG. 10B is a table of antibody crossblocking of H3 vs. CA33, CA13, CA15, and CA23 as determined by Biacore analysis. ++=complete blocking; +=partial blocking; −=no crossblocking.
# The assay was performed by injecting mouse aP2 in the presence or absence of mouse anti-aP2 IgG over captured rabbit anti-aP2 IgG. Biomolecular interaction analysis was performed using a Biacore T200 (GE Healthcare Bio-Sciences AB). Anti-aP2 rabbit IgG transient supernatants were captured on the immobilized anti-rabbit Fc surfaces (one supernatant per flowcell) using a flow rate of 10 μl/min and a 60 s injection to give response levels above 200RU. Then mouse aP2 at 100 nM, 0 nM or mouse aP2 at 100 nM plus mouse anti-aP2 IgG at 500 nM were passed over for 120 s followed by 120 s dissociation. The surfaces were regenerated with 2×60 s 40 mM HCl and 1×30 s 5 mM NaOH.
# In further analysis, epitope identification based on hydrogen-deuterium exchange mass spectrometry experiments, for example, as described by Pandit et al. (2012) J. Mol. Recognit. […] Co-crystallization of the Fab fragments of CA33 and H3 with aP2 (FIG. 10D) was then conducted. […] Despite the partial blocking of H3 by CA33, we observed that there is in fact no direct overlap of their epitopes. Instead, the significant movement of the region around aP2 Phe58 may partially block binding of one antibody by the other in the competition experiments. […]
# Sequence of human glucagon receptor (P47871 26-477): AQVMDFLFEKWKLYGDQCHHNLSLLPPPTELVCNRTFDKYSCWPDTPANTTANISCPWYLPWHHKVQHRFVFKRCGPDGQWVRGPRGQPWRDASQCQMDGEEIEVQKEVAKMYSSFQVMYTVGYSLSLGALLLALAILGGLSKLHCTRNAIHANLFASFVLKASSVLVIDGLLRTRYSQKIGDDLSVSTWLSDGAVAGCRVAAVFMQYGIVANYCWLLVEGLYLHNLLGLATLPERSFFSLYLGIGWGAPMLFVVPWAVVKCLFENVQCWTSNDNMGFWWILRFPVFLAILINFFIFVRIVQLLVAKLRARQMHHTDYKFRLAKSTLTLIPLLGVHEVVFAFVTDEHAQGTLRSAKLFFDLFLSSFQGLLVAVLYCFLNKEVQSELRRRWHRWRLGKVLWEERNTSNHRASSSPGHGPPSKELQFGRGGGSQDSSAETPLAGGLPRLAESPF
molecule,measurement,setting,value
B1,"Effect on glucagon potentiation by aP2 (cAMP response, luminescence)",[1],blocks the glucagon potentiation effect of aP2
same,Blocking of H3 binding to aP2,[2],partially blocked
